Here are results for two molecules from PMC8723827 (2022).

The target of this assay is His-tagged SARS-CoV-2 RBD (early pandemic, Wuhan) (SARS-CoV-2, UniProt P0DTC2). Kind of assay: SPR. On the technique in general: SPR reads the build-up and loss of mass on a sensor chip optically.

B1: EY6A mAb (IgG) (antibody, V domains shown)
VH: EVQLVESGGGVVQPGRSLRLSCAASAFTFSSYDMHWVRQAPGKGLEWVAVISYDGSNKYYADSVKGRFTISRDNSKNTLYLQMNSLRAEDTAVYYCAKDGGKLWVYYFDYWGQGTLVTVSS
VL: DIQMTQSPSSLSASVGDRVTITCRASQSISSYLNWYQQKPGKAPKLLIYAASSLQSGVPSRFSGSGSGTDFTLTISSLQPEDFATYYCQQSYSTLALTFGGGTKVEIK
As to B1, the koff was 0.0048 s⁻¹.

B2: Beta-55 mAb (IgG) (antibody, V domains shown)
VH: QVQLQESGPGLVKPSETLSLTCTVSGDSISSSRYYWGWIRQPPGKGLEWIGTFYYSGITYYNPSLKSRVTIFVDTSKNQFSLKLSSVTAADTAVYYCARPRPPDYYDNSGALLFDIWGQGTMVTVSS
VL: AIRMTQSPSTLSASVGDRVTIACRASQSISAWLAWYQQKPGKAPKLLIYKASSLESGVPSRFSGSGSGTEFTLTINSLQPDDFATYYCQQYISSSPWTFGQGTKVEIK
As for B2, the off-rate constant (koff) turned out to be 0.00018 s⁻¹.

For orientation: koff means a measure of how fast the partners let go of each other. A higher koff goes with fast dissociation.
